B1: ClpA (enzyme, E. coli, UniProt P0ABH9 1-758, looked up)
chain: MLNQELELSLNMAFARAREHRHEFMTVEHLLLALLSNPSAREALEACSVDLVALRQELEAFIEQTTPVLPASEEERDTQPTLSFQRVLQRAVFHVQSSGRNEVTGANVLVAIFSEQESQAAYLLRKHEVSRLDVVNFISHGTRKDEPTQSSDPGSQPNSEEQAGGEERMENFTTNLNQLARVGGIDPLIGREKELERAIQVLCRRRKNNPLLVGESGVGKTAIAEGLAWRIVQGDVPEVMADCTIYSLDIGSLLAGTKYRGDFEKRFKALLKQLEQDTNSILFIDEIHTIIGAGAASGGQVDAANLIKPLLSSGKIRVIGSTTYQEFSNIFEKDRALARRFQKIDITEPSIEETVQIINGLKPKYEAHHDVRYTAKAVRAAVELAVKYINDRHLPDKAIDVIDEAGARARLMPVSKRKKTVNVADIESVVARIARIPEKSVSQSDRDTLKNLGDRLKMLVFGQDKAIEALTEAIKMARAGLGHEHKPVGSFLFAGPTGVGKTEVTVQLSKALGIELLRFDMSEYMERHTVSRLIGAPPGYVGFDQGGLLTDAVIKHPHAVLLLDEIEKAHPDVFNILLQVMDNGTLTDNNGRKADFRNVVLVMTTNAGVRETERKSIGLIHQDNSTDAMEEIKKIFTPEFRNRLDNIIWFDHLSTDVIHQVVDKFIVELQVQLDQKGVSLEVSQEARNWLAEKGYDRAMGARPMARVIQDNLKKPLANELLFGSLVDGGQVTVALDKEKNELTYGFQSAQKHKAEAAH

Legend:
[1] = target: the molecule itself; test: cryo-EM structure
[2] = target: B1; test: cryo-EM structure

Binder | stoichiometry N [1] | binding result [2]
ClpP (enzyme) not shown | 14 | binds
B1 | 6 | –

From article PMC7529148 (Nature structural & molecular biology, 2020)
